± gives the uncertainty stated by the source.
Assay: self-splicing fitness, log relative to wild type (ln ratio); higher = more splicing; Tetrahymena group I intron in knt gene, E. coli kanamycin selection, DiMSum; sequences stand for … in CUCUCU…GGAGGGAAAAGUUAUCAGGCAUGCACCUGGUAGCUAGUCUUUAAACCAAUAGAUUGCAUCGGUUUAAAAGGCAAGACCGUCAAAUUGCGGGAAAGGGGUCAACAGCCGUUCAGUACCAAGUCUCAGGGGAAACUUUGAGAUGGCCUUGCAAAGGGUAUGGUAAUAAGCUGACGGACAUGGUCCUAACCACGCAGCCAAGUCCUAAGUCAACAGAUCUUCUGUUGAUAUGGAUGCAGUUCACAGACUAAAUGUCGGUCGGGGAAGAUGUAUUCUUCUCAUAAGAUAUAGUCGGACCUCUCCUUAAUGGGAGCUAGCGGAUGAAGUGAUGCAACACUGGAGCCGCUGGGAACUAAUUUGUAUGCGAAAGUAUAUUGAUUAGUUUUGGAGUACUCGUGGUCG
Procedure, shortened: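 Fitness was computed with DiMSum as the error-weighted combination of replicate fold changes, kanamycin versus none, each normalised to wild type. The library randomised all eight intron nucleotides of the P1ex region, with the intron placed in the knt kanamycin-resistance gene on pET-22b(+) in E. coli BL21(DE3). Six replicate transformations were grown overnight at 37°C or 30°C on LB agar with or without 25 μg/mL kanamycin, plus 100 μg/mL carbenicillin, 50 μM IPTG and 0.2% rhamnose. Pooled colonies were amplicon-sequenced on an Illumina HiSeq 2500.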

| Sequence | self-splicing fitness (ln) (30 °C) | self-splicing fitness (ln) (37 °C) |
| --- | --- | --- |
| GUAUAGCAAUAUUACGGACG | -2.73 ± 0.41 | -1.3 ± 0.33 |
| UGUAAGCAAUAUUACGGGCC | -2.87 ± 0.41 | -1.23 ± 0.41 |
| GUUAAGCAAUAUUACGGCAC | -0.637 ± 0.12 | 0.0416 ± 0.15 |
| ACUAAGCAAUAUUACGCGAU | -2.98 ± 0.15 | -1.82 ± 0.2 |
| CUGCAGCAAUAUUACGAGGG | -4.19 ± 0.24 | -1.95 ± 0.17 |
| UAGCAGCAAUAUUACGGUCA | -0.671 ± 0.07 | 0.278 ± 0.085 |
| AGGGAGCAAUAUUACGAUCG | -2.68 ± 0.27 | -2.19 ± 0.46 |
| CAACAGCAAUAUUACGGUAG | -0.633 ± 0.059 | -0.746 ± 0.068 |
| ACAAAGCAAUAUUACGAGUG | -1.37 ± 0.068 | -0.772 ± 0.081 |
| UAUGAGCAAUAUUACGUCAC | -4.15 ± 0.46 | -2.26 ± 0.49 |
| CAUUAGCAAUAUUACGGACA | -2.45 ± 0.22 | -1.22 ± 0.18 |
| ACCCAGCAAUAUUACGCGAU | -1.84 ± 0.1 | -1.47 ± 0.11 |
| UCAAAGCAAUAUUACGAUCU | -2.82 ± 0.13 | -0.778 ± 0.12 |
| CAUGAGCAAUAUUACGUCGG | -2.94 ± 0.18 | -1.57 ± 0.21 |
| CUGCAGCAAUAUUACGGUUU | -3.11 ± 0.13 | -1.43 ± 0.12 |
| AAAGAGCAAUAUUACGGUUA | -2.49 ± 0.21 | -2.06 ± 0.18 |
| GUCCAGCAAUAUUACGGGCU | -2.54 ± 0.31 | – |
| UGGAAGCAAUAUUACGCAGA | -2.85 ± 0.21 | -0.966 ± 0.14 |
| GUCCAGCAAUAUUACGGUCC | -3.66 ± 0.35 | -2.68 ± 0.29 |
| CGAGAGCAAUAUUACGAUGA | -2.11 ± 0.28 | -1.27 ± 0.25 |
| UAAUAGCAAUAUUACGUAUG | -1.88 ± 0.12 | -0.28 ± 0.13 |
| UUAAAGCAAUAUUACGGCCA | -0.086 ± 0.13 | -0.188 ± 0.17 |
| CGCAAGCAAUAUUACGGACC | -1.72 ± 0.1 | -0.3 ± 0.14 |
| AAGCAGCAAUAUUACGAAAU | -2.65 ± 0.11 | -1.33 ± 0.12 |
| ACAAAGCAAUAUUACGCUAA | -2.51 ± 0.13 | -1.14 ± 0.086 |

| Sequence | self-splicing fitness (ln) (30 °C) | self-splicing fitness (ln) (37 °C) |
| --- | --- | --- |
| UGUUAGCAAUAUUACGUCAG | -1.61 ± 0.15 | -0.486 ± 0.2 |
| AAUCAGCAAUAUUACGAUCG | -0.0405 ± 0.063 | 0.448 ± 0.084 |
| UAGAAGCAAUAUUACGGGAC | -3.1 ± 0.36 | -3.21 ± 0.47 |
| AAGCAGCAAUAUUACGCGGC | -3.33 ± 0.35 | -2.4 ± 0.24 |
| UACAAGCAAUAUUACGAUAA | -1.93 ± 0.13 | -0.276 ± 0.12 |
| ACAGAGCAAUAUUACGAACG | -2.76 ± 0.19 | -1.45 ± 0.28 |
| UCAAAGCAAUAUUACGCAAG | -2.18 ± 0.14 | -1.48 ± 0.15 |
| UGAGAGCAAUAUUACGAGUA | -2.37 ± 0.49 | -2.16 ± 0.46 |
| AUUUAGCAAUAUUACGGAUA | -2.18 ± 0.27 | -1.53 ± 0.27 |
| UUACAGCAAUAUUACGCGUA | -3.07 ± 0.2 | -1.94 ± 0.16 |
| UCGAAGCAAUAUUACGCAUU | -1.97 ± 0.19 | -2.46 ± 0.26 |
| GGGGAGCAAUAUUACGUCGA | 0.294 ± 0.28 | – |
| AGUUAGCAAUAUUACGCCGC | -2.09 ± 0.38 | – |
| UAGGAGCAAUAUUACGCUGG | -2.38 ± 0.43 | -0.826 ± 0.28 |
| UACGAGCAAUAUUACGCCAC | – | -2.29 ± 0.42 |
| GCUCAGCAAUAUUACGCCGU | -0.521 ± 0.14 | -1.61 ± 0.22 |
| GAGAAGCAAUAUUACGAGUA | -2.04 ± 0.2 | -1.73 ± 0.12 |
| GGUCAGCAAUAUUACGGGGG | – | -2.15 ± 0.34 |
| AGCUAGCAAUAUUACGGACU | 8.42e-05 ± 0.097 | 0.516 ± 0.12 |
| UUCCAGCAAUAUUACGACCU | -2.38 ± 0.26 | -3.19 ± 0.39 |
| GAAUAGCAAUAUUACGCGUC | -1.98 ± 0.23 | 0.15 ± 0.32 |
| UCCUAGCAAUAUUACGUAAA | -1.84 ± 0.19 | 0.0696 ± 0.22 |
| AUGUAGCAAUAUUACGUCUU | -1.62 ± 0.13 | -0.0792 ± 0.13 |
| UACGAGCAAUAUUACGACAC | -3.07 ± 0.19 | -3.28 ± 0.25 |

From the supplement of paper PMC7877785
